Six substances from paper PMC4381924 can be followed below.

The target of one assay is IGF1R TM-fp (human). Description: FRET or BRET; spectrally resolved two-photon FRET on living, serum-starved CHO cells; mTurquoise donor, EYFP acceptor; FRET efficiency per membrane pixel; without IGF1.
For assay [1], the target named is IGF1R ECDΔL1-TM-fp (human). In words: FRET or BRET; quantitative imaging FRET (QI-FRET) in plasma-membrane vesicles derived from transiently co-transfected CHO cells; EYFP donor, mCherry acceptor; confocal microscopy at room temperature; intrinsic FRET corrected for proximity FRET and donor-to-acceptor ratio; without IGF1.
Assay [2] has as its target IGF1R ECD-TM-fp (human).
For assay [3], the target named is IGF1R ECD-TM-fp (human). In words: FRET or BRET; quantitative imaging FRET (QI-FRET) in plasma-membrane vesicles derived from transfected CHO cells; intrinsic FRET corrected for proximity FRET and donor-to-acceptor ratio; with IGF1.
In assay [4] the target is IGF1R ECD-TM-fp (human). In words: FRET or BRET; spectrally resolved two-photon FRET on living, serum-starved CHO cells; mTurquoise donor, EYFP acceptor; FRET efficiency per membrane pixel; with IGF1.
Assay [5] has as its target IGF1R ECD-TM-fp H905C (human). Description: FRET or BRET; quantitative imaging FRET (QI-FRET) in plasma-membrane vesicles derived from transiently co-transfected CHO cells; EYFP donor, mCherry acceptor; confocal microscopy at room temperature; intrinsic FRET corrected for proximity FRET and donor-to-acceptor ratio; without IGF1.
Assay [6] addresses IGF1R TM-icd H905C (human). Description: cross-linking; disulfide bond between introduced cysteines; HEK293 cells incubated with or without IGF1, lysed in RIPA buffer with 10 mM iodoacetamide; non-reducing against reducing SDS-PAGE, anti-IGF1Rβ Western blot.

Values joined by “and” are separate entries in the source; they are usually repeats but may differ in a detail not shown here. Identical values can stand only once.

IGF1R ECD-TM-fp, sequence (P08069 741-935): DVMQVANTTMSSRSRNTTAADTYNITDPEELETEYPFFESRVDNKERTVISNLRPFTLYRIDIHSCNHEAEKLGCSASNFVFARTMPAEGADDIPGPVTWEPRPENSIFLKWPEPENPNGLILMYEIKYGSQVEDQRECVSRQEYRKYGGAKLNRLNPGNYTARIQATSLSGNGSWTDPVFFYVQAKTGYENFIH
IGF1, sequence (P05019 49-118): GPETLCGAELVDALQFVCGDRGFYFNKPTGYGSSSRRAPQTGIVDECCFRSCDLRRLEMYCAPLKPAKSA

As to IGF1R TM-fp (domain or fragment), the FRET efficiency per membrane pixel (peak of a two state distribution) in the assay with IGF1R TM-fp (human) is 0.37 and 0.33. As for IGF1R ECDΔL1-TM-fp (domain or fragment), in assay [1], the intrinsic FRET efficiency (y intercept of a horizontal line) was 0.36.

In the assay with IGF1R ECD-TM-fp (human) [2], “IGF1 (from UniProt P05019 49-118) (ligand)” showed an FRET efficiency between co-transfected donor- and acceptor-tagged IGF1R ECD-TM-fp in membranes of live CHO cells, with against without ligand of 2 fold. For the substance IGF1R ECD-TM-fp (domain or fragment), the intrinsic FRET efficiency (y intercept of a horizontal line) with IGF1R ECD-TM-fp (human) [3] stood at 0.34. The substance also displayed an FRET efficiency per membrane pixel (peak of a normal distribution) with IGF1R ECD-TM-fp (human) [4] of 0.34. On to “IGF1R ECD-TM-fp H905C (domain or fragment)”, for which the intrinsic FRET efficiency (y intercept of a horizontal line) in assay [5] came out at 0.38. Substance IGF1R TM-icd H905C (domain or fragment) had a stoichiometry N in assay [6] of 2.
